According to patent publication US8329195B2, “Detoxified pneumococcal neuraminidase and uses thereof” (priority 2007, dated 2012):
Read-outs that look alike come from different tables or passages of the source.

Key:
[1] = NanB at its optimal pH; cited from earlier work
[2] = system: TIGR4 Streptococcus pneumoniae; type: in vivo; conditions: for protection against nasal carriage / colonization (nasal wash and nasal tissue) / protection from pneumococci reaching (invasion into) the lungs, olfactory bulb, or brain: CBA/N mice, 50 μg intranasal with CTB, TIGR4 challenge, day 7
[3] = Sialidase (neuraminidase) activity of recombinant NanA fragments; type: biochemical
Method: The decreased activity of a detoxified neuraminidase or a neuraminidase fragment as compared to non-detoxified neuraminidase can be measured by the assay of Lock, et al. (Microb. Pathog. 4; 33-43, 1988). Using the Lock assay, NanA activity in lysates, serum, or blood can be measured using 2′-(4-methyl-umbelliferyl)-α-D-N-acetylyneuraminic acid as the substrate in a enzyme assay (Lock et al. 1988). Ten microliters of substrate are combined with 10 μL of serum and incubated for 5 minutes at 37° C. The reaction is stopped using 0.5 M sodium carbonate. Neuraminidase activity is measured in terms of the amount of 4-methylumbelliferone (MU) released per minute. MU has an excitation wavelength of 366 nm and an emission wavelength of 445 nm. […] Thus, the detoxified neuraminidase or fragment thereof can have no measurable enzymatic activity as compared to the enzymatic activity of a non-detoxified neuraminidase. Further, the detoxified neuraminidase can have protective antibody eliciting activity similar to the non-detoxified neuraminidase.
Such an assay is described in Berry et al., J. Bacterial 1784854-4860 (1996).

[4] = MUAN assay of neuraminidase activity; type: biochemical; conditions: MUAN assay at 37° C. at pH 7.0
Description: The total abolishment of activity is consistent with the proposed activities as based on the alignment with structures previously known.

Row | Molecule | protection against nasal carriage / colonization (nasal wash and nasal tissue) [2] | protection from pneumococci reaching (invasion into) the lungs, olfactory bulb, or brain [2] | sialidase activity of the recombinant protein [3] | neuraminidase activity [4] | further results
1 | NanB: another S. pneumoniae neuraminidase, 43% homology with NanA (protein, UniProt Q54727 30-697, looked up) Sialidase B: NELNYGQLSISPIFQGGSYQLNNKSIDISSLLLDKLSGESQTVVMKFKADKPNSLQALFGLSNSKAGFKNNYFSIFMRDSGEIGVEIRDAQKGINYLFSRPASLWGKHKGQAVENTLVFVSDSKDKTYTMYVNGIEVFSETVDTFLPISNINGIDKATLGAVNREGKEHYLAKGSIDEISLFNKAISDQEVSTIPLSNPFQLIFQSGDSTQANYFRIPTLYTLSSGRVLSSIDARYGGTHDSKSKINIATSYSDDNGKTWSEPIFAMKFNDYEEQLVYWPRDNKLKNSQISGSASFIDSSIVEDKKSGKTILLADVMPAGIGNNNANKADSGFKEINGHYYLKLKKNGDNDFRYTVRENGVVYNETTNKPTNYTINDKYEVLEGGKSLTVEQYSVDFDSGSLRERHNGKQVPMNVFYKDSLFKVTPTNYIAMTTSQNRGESWEQFKLLPPFLGEKHNGTYLCPGQGLALKSSNRLIFATYTSGELTYLISDDSGQTWKKSSASIPFKNATAEAQMVELRDGVIRTFFRTTTGKIAYMTSRDSGETWSKVSYIDGIQQTSYGTQVSAIKYSQLIDGKEAVILSTPNSRSGRKGGQLVVGLVNKEDDSIDWKYHYDIDLPSYGYAYSAITELPNHHIGVLFEKYDSWSRNELHLSNVVQYIDLEINDLTK |  |  |  |  | sialidase activity relative to NanA at its pH optimum [1]: about 1/100
2 | NanA186: recombinant near-N-terminal NanA fragment from TIGR4, residues 157-342; His-tagged form SEQ ID NO:22 (protein) EFKPDAKAPAFYNLFSVSSATKKDEYFTMAVYNNTATLEGRGSDGKQFYNNYNDAPLKVKPGQWNSVTFTVEKPTAELPKGRVRLYVNGVLSRTSLRSGNFIKDMPDVTHVQIGATKRANNTVWGSNLQIRNLTVYNRALTPEEVQKRSQLFKRSDLEKKLPEGAALTEKTDIFESGRNGNPNKDG | no observed statistically significant protection | did not elicit protection | no sialidase activity |  | 
3 | NanA571: recombinant 571-amino-acid central fragment of TIGR4 NanA, corresponding to residues 230-800 of R6 NanA; His-tagged form SEQ ID NO:18 (protein, listed as Streptococcus pneumoniae) PTAELPKGRVRLYVNGVLSRTSLRSGNFIKDMPDVTHVQIGATKRANNTVWGSNLQIRNLTVYNRALTPEEVQKRSQLFKRSDLEKKLPEGAALTEKTDIFESGRNGNPNKDGIKSYRIPALLKTDKGTLIAGADERRLHSSDWGDIGMVIRRSEDNGKTWGDRVTITNLRDNPKASDPSIGSPVNIDMVLVQDPETKRIFSIYDMFPEGKGIFGMSSQKEEAYKKIDGKTYQILYREGEKGAYTIRENGTVYTPDGKATDYRVVVDPVKPAYSDKGDLYKGDQLLGNIYFTTNKTSPFRIAKDSYLWMSYSDDDGKTWSAPQDITPMVKADWMKFLGVGPGTGIVLRNGPHKGRILIPVYTTNNVSHLDGSQSSRVIYSDDHGKTWHAGEAVNDNRQVDGQKIHSSTMNNRRAQNTESTVVQLNNGDVKLFMRGLTGDLQVATSKDGGVTWEKDIKRYPQVKDVYVQMSAIHTMHEGKEYIILSNAGGPKRENGMVHLARVEENGELTWLKHNPIQKGEFAYNSLQELGNGEYGILYEHTEKGQNAYTLSFRKFNWEFLSKNLISPTEAN | solid protection |  | active | 3.9 µmol/min/mg | protection against nasal carriage / colonization (nasal wash and nasal tissue) ([2]; listed as rNanA571): elicited protection; in vivo protection to S. pneumoniae challenge ([2]; figure legend FIG. 11): elicited in vivo protection; sialidase activity of the recombinant protein ([3]; listed as rNanA571): enzymatically active
4 | NanA571_Y752F: NanA571 with tyrosine Y752 converted to phenylalanine (protein) PTAELPKGRVRLYVNGVLSRTSLRSGNFIKDMPDVTHVQIGATKRANNTVWGSNLQIRNLTVYNRALTPEEVQKRSQLFKRSDLEKKLPEGAALTEKTDIFESGRNGNPNKDGIKSYRIPALLKTDKGTLIAGADERRLHSSDWGDIGMVIRRSEDNGKTWGDRVTITNLRDNPKASDPSIGSPVNIDMVLVQDPETKRIFSIYDMFPEGKGIFGMSSQKEEAYKKIDGKTYQILYREGEKGAYTIRENGTVYTPDGKATDYRVVVDPVKPAYSDKGDLYKGDQLLGNIYFTTNKTSPFRIAKDSYLWMSYSDDDGKTWSAPQDITPMVKADWMKFLGVGPGTGIVLRNGPHKGRILIPVYTTNNVSHLDGSQSSRVIYSDDHGKTWHAGEAVNDNRQVDGQKIHSSTMNNRRAQNTESTVVQLNNGDVKLFMRGLTGDLQVATSKDGGVTWEKDIKRYPQVKDVYVQMSAIHTMHEGKEYIILSNAGGPKRENGMVHLARVEENGELTWLKHNPIQKGEFAFNSLQELGNGEYGILYEHTEKGQNAYTLSFRKFNWEFLSKNLISPTEAN |  |  |  | Neither mutation exhibited any detectable neuraminidase activity | 
5 | NanA571_E647T: NanA571 with glutamate E647 converted to threonine (protein) PTAELPKGRVRLYVNGVLSRTSLRSGNFIKDMPDVTHVQIGATKRANNTVWGSNLQIRNLTVYNRALTPEEVQKRSQLFKRSDLEKKLPEGAALTEKTDIFESGRNGNPNKDGIKSYRIPALLKTDKGTLIAGADERRLHSSDWGDIGMVIRRSEDNGKTWGDRVTITNLRDNPKASDPSIGSPVNIDMVLVQDPETKRIFSIYDMFPEGKGIFGMSSQKEEAYKKIDGKTYQILYREGEKGAYTIRENGTVYTPDGKATDYRVVVDPVKPAYSDKGDLYKGDQLLGNIYFTTNKTSPFRIAKDSYLWMSYSDDDGKTWSAPQDITPMVKADWMKFLGVGPGTGIVLRNGPHKGRILIPVYTTNNVSHLDGSQSSRVIYSDDHGKTWHAGEAVNDNRQVDGQKIHSSTMNNRRAQNTTSTVVQLNNGDVKLFMRGLTGDLQVATSKDGGVTWEKDIKRYPQVKDVYVQMSAIHTMHEGKEYIILSNAGGPKRENGMVHLARVEENGELTWLKHNPIQKGEFAYNSLQELGNGEYGILYEHTEKGQNAYTLSFRKFNWEFLSKNLISPTEAN |  |  |  | Neither mutation exhibited any detectable neuraminidase activity | 
6 | NanA215: recombinant NanA fragment from TIGR4, residues 347-561, covers 2 of 4 Asp boxes; His-tagged form SEQ ID NO:20 (protein) RIPALLKTDKGTLIAGADERRLHSSDWGDIGMVIRRSEDNGKTWGDRVTITNLRDNPKASDPSIGSPVNIDMVLVQDPETKRIFSIYDMFPEGKGIFGMSSQKEEAYKKIDGKTYQILYREGEKGAYTIRENGTVYTPDGKATDYRVVVDPVKPAYSDKGDLYKGDQLLGNIYFTTNKTSPFRIAKDSYLWMSYSDDDGKTWSAPQDITPMVKAD | no observed statistically significant protection | did not elicit protection | no sialidase activity |  | 
